This is an account of results in paper PMC4829432, “T-box3 is a ciliary protein and regulates stability of the Gli3 transcription factor to control digit number” (eLife, 2016).

T1: Suppressor of fused (Sufu), endogenous mouse protein (mouse (endogenous in E10.5 embryos), UniProt Q9Z0P7 1-484)
T1 construct: Suppressor of fused (Sufu), mouse, endogenous in E10.5 embryos; source: endogenous, E10.5 mouse whole embryo lysate (control or Tbx3 null)
T1 sequence (looked up): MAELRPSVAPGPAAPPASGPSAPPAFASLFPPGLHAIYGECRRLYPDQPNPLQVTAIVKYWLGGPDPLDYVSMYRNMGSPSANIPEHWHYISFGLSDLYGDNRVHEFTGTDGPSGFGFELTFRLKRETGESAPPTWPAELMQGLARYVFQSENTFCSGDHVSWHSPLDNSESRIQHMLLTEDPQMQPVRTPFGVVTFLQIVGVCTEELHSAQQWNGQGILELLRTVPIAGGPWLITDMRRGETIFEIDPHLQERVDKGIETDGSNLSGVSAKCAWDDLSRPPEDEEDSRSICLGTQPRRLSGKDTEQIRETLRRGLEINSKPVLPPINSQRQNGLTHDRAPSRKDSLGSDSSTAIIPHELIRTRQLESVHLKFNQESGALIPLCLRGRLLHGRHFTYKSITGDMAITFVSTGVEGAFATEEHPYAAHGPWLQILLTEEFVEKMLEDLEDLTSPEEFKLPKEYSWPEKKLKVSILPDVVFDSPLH

B1: Kif7, endogenous mouse protein (natural protein, mouse (endogenous in E10.5 embryos), UniProt B7ZNG0 1-1348, looked up)
chain: MGLEAQRLPGAEEAPVRVALRVRPLLPKELLHGHQSCLRVEPERGRITLGRDRHFGFHVVLGEDTGQEAVYQACVQPLLEAFFEGFNATVFAYGQTGSGKTYTMGEASVASLHEDEQGIIPRAMAEAFKLIDENDLLDCLVHVSYLELYKEEFRDLLEVGTASRDIQLREDDRGNVVLCGVKEVDVEGLDEVLSLLEMGNAARHTGATHFNRLSSRSHTVFTVTLEQRGRTPSRLPRPAAGHLLVSKFHFVDLAGSERVLKTGSTGERLKESIQINSTLLALGNVISALGDPQRRGSHIPYRDSKITRILKDSLGGNAKTVMIACVSPSSSDFDETLNTLNYASRAQNIRNRATVNWHPEAERVPEEQAAGARGPPRHRSETRIIHRGRRVPCPAVGSAAVAAGLGAECARCRARTSAAYSLLRELQAEPGLPGAAARKVRDWLCAVEGERSTLSSASGPDSGIESAPAEDQAAQGTSGRKGDEGTQQLLTLQSQVARLEEENRDFLAALEDAMEQYKLQSDRLREQQEEMVELRLRLELAQPGWGAPGLLQGLPPGSFVPRPHTAPLGGAHTHMLGMMPSTCLPGEEVSSEQQVVSGKEVKAEVLAQADKLRSASSTTSEEEGEEEEEEEEEEEEPPRRTLYLRRNGISNWSQRAGLSPGSPPDRKGPEVCPEEPAAAIPAPQAVGSGKVPVQTRQAPAAMASEWRLAQAQQKIRELAINIRMKEELIGELVRTGKAAQALNRQHSQRIRELEQEAERVRAELCEGQRQLRELEGREPQDASERSRLQEFRKRVAAAQSQVQVLKEKKQATERLVSLSAQSETRLQELERNVQLMRRQQGQLQRRLREETEQKRRLETEMNKRQHRVKELELKHEQQQKILKIKTEEIAAFQRKRRSGSNGSVVSLEQQQKIEEQKKWLDQEMEKVLQQRRALEELGEELRKREVILAKKEALMQEKTGLESKRLRSSQALNEDIVRVSSRLEHLEKELSEKSGQLRQGSAQNQQQIRGEIDTLRQEKDSLLKQRLEIDSKLRQGSLLSPEEERTLFQLDEAIEALDAAIEYKNEAITCRQRVLRASASLLSQCEMNLMAKLSYLSSSETRALLCKYFDKVVTLREEQHQQQIAFSELEMQLEEQQRLVYWLEVALERQRLEMDRQLTLQQKEHEQNVQLLLQQGRDHLGEGLADSKRQYEARIHALEKELGRHMWINQELKQKLSAGSTAGQSQGCERRSLCLENRQCLGNEDGLHPAAPEPLWQSSLLEGVSRVWDESRDLVHAPLPLTWKRSSLCSEQGSSEESRVRETTEPPVGRVLPMGEVGLSWNFGPLPKPRWEPRRTSPGMIDVRKNPL
notes: Kif7, ciliary kinesin family protein, mouse, endogenous in E10.5 forelimb buds and whole embryos; source: endogenous, E10.5 mouse forelimb bud lysate or E10.5 whole embryo lysate (control or Tbx3 null)
B2: full length Gli3 (Gli3FL), endogenous mouse protein (natural protein, mouse (endogenous in E10.5 embryos), UniProt Q61602 1-1583, looked up)
chain: MEAQAHSSTATERKKAENSIGKCPTRTDVSEKAVASSTTSNEDESPGQIYHRERRNAITMQPQSVQGLNKISEEPSTSSDERASLIKKEIHGSLPHLAEPSLPYRGTVFAMDPRNGYMEPHYHPPHLFPAFHPPVPIDARHHEGRYHYDPSPIPPLHVPSALSSSPTYPDLPFIRISPHRNPTAASESPFSPPHPYINPYMDYIRSLHSSPSLSMISAARGLSPTDAPHAGVSPAEYYHQMALLTGQRSPYADILPSAATAGAGAIHMEYLHAMDSTRFPSPRLSARPSRKRTLSISPLSDHSFDLQTMIRTSPNSLVTILNNSRSSSSASGSYGHLSASAISPALSFTYPSAPVSLHMHQQILSRQQSLGSAFGHSPPLIHPAPTFPTQRPIPGIPTVLNPVQVSSGPSESSQSKPTSESAVSSTGDPMHNKRSKIKPDEDLPSPGSRGQQEQPEGTTLVKEEADKDESKQEPEVIYETNCHWEGCTREFDTQDQLVHHINNDHIHGEKKEFVCRWLDCSREQKPFKAQYMLVVHMRRHTGEKPHKCTFEGCTKAYSRLENLKTHLRSHTGEKPYVCEHEGCNKAFSNASDRAKHQNRTHSNEKPYVCKIPGCTKRYTDPSSLRKHVKTVHGPEAHVTKKQRGDMHPRPPPPRDSGSHSQSRSPGRPTQGAFGEQKELSNTTSKREECLQVKTVKAEKPMTSQPSPGGQSSCSSQQSPISNYSNSGLELPLTDGGSVADLSAIDETPIMDSTISTATTALALQARRNPAGTKWMEHIKLERLKQVNGMFPRLNPILPSKAPAVSPLIGNGTQSNNNYSSGGPGTLLPSRSDLSGVDFTVLNTLNRRDSNTSTISSAYLSSRRSSGISPCFSSRRSSEASQAEGRPQNVSVADSYDPISTDASRRSSEASQGDGLPSLLSLTPVQQYRLKAKYAAATGGPPPTPLPHMERLSLKTKMALLGEGRDSGVTLPPVHPPRRCSDGGGHTYRGRHLMPHDALANSVRRASDPVRTVSENMSLARVQRFSSLNSFNPPNLPPSVEKRSLVLQNYTRQESSQPRYFQASPCPPSITENVALEALTMDADANLNDEDLLPDDVVQYLNSQNQTGYGQQLQSGISEDSKVAHEPEDLDLAGLPDSHVGQEYPALEQPCSEGSKTDLPIQWNEVSSGTSDLSSSKLKCGQQRPSAQQPRGFGLYNNMVVHPHNLWKVGTGPAGGYQTLGENSSTYNGPEHFAIHSGDGLGTNGNTFHEQPFKTQQYGSQLNRQPLTSSALDHACGTGIQGSKLKGNSLQENGGLLDFSLSVAPNELAGNTVNGMQTQDQMGQGYIAHQLLSGSMQHQGPSRPGQQVLGQVGATSHINIYQGTESCLPGTQDNSSQPSSMAAIRGYQPCASYGGNRRQAMPRGNLTLQQGQLSDMSQSSRVNSIKMEAQGQSQQLCSTVQNYSGQFYDQTMGFSQQDRKAGSFSLSDANCLLQGNGTENSELLSPGANQVTSTVDSFESHDLEGVQIDFDAIIDDGDHTSLMSGALSPSIIQNLSHSSSRLTTPRASLPFPSLSMGTTNMAIGDMSSLLTSLAEESKFLAVMQ
notes: Gli3 transcription factor, mouse, the unprocessed full length form (Gli3FL band on anti-Gli3 immunoblots); also called GliFL; source: endogenous, E10.5 mouse forelimb bud lysate or E10.5 whole embryo lysate (control or Tbx3 null)

For assay [1], the target named is Kif7, endogenous mouse protein (mouse (endogenous in E10.5 embryos)) (UniProt B7ZNG0). The assay can be described thus: co-IP; as a4, but lysates of Tbx3 null (Tbx3 delta-fl/delta-fl, ko) E10.5 embryos; Kif7-Gli3 co-precipitate compared with control (wt) embryos by densitometry.
Assay [2] concerns the target Suppressor of fused (Sufu), endogenous mouse protein (mouse (endogenous in E10.5 embryos)) (UniProt Q9Z0P7). The assay can be described thus: co-IP; endogenous proteins; E10.5 whole mouse embryo lysates in Dignam buffer C, control (wt) embryos; Sufu-Gli3, Sufu-Kif7 and Tbx3-Spop also assayed in Tbx3 null (Tbx3 delta-fl/delta-fl, ko) embryos, where less Sufu-Gli3 and Sufu-Kif7 co-precipitated; 5-10 ug antibody overnight at 4 C, Protein-G Dynal beads, immunoblot, densitometry.

The target of assay [3] is T2, Gli3, endogenous mouse protein as precipitated by anti-Gli3 (Gli3FL and Gli3R not told apart) (mouse (endogenous in E10.5 embryos), UniProt Q61602 1-1583).
T2 construct: Gli3 transcription factor, mouse, endogenous; Used only for the lanes in which Gli3 was the bait (IP with anti-Gli3, blot for the partner); the forms Gli3FL and Gli3R are told apart only on anti-Gli3 blots; also called endogenous Gli3; Gli3 proteins; source: endogenous, E10.5 mouse forelimb bud lysate or E10.5 whole embryo lysate (control or Tbx3 null)
Description: co-IP; as a4, but lysates of Tbx3 null (Tbx3 delta-fl/delta-fl, ko) E10.5 embryos; Kif7-Gli3 co-precipitate compared with control (wt) embryos by densitometry. Conditions: partners not purified.

The target in assay [4] is T1, Suppressor of fused (Sufu), endogenous …. Description: co-IP; endogenous proteins; E10.5 whole mouse embryo lysates in Dignam buffer C, control (wt) embryos; Sufu-Gli3, Sufu-Kif7 and Tbx3-Spop also assayed in Tbx3 null (Tbx3 delta-fl/delta-fl, ko) embryos, where less Sufu-Gli3 and Sufu-Kif7 co-precipitated; 5-10 ug antibody overnight at 4 C, Protein-G Dynal beads, immunoblot, densitometry. Particulars: partners not purified.

Assay [5] deals with B1. Description: co-IP; as a4, but lysates of Tbx3 null (Tbx3 delta-fl/delta-fl, ko) E10.5 embryos; Kif7-Gli3 co-precipitate compared with control (wt) embryos by densitometry. Particulars: partners not purified.

In the case of “Gli3 repressor form (Gli3R), endogenous mouse protein (from UniProt Q61602 1-1583)”, in assay [1], the fold more co-precipitated in Tbx3 mutants than in controls came to 3.3 fold.

Regarding “Gli3 repressor form (Gli3R), endogenous mouse protein (from UniProt Q61602 1-1583) (domain or fragment)”, the fold more co-precipitated in controls than in Tbx3 mutants in assay [2] is > 9 fold. Besides, the band intensity ratio of control to mutant in assay [1] was found to be 0.25.

For the molecule B1, the “band intensity ratio of control to mutant” value in assay [3] is 0.1.

Consider B2, for which the “fold more co-precipitated in controls than in Tbx3 mutants” value in assay [4] is 4.6 fold. Also, the “band intensity ratio of control to mutant” value in assay [5] amounted to 0.1.
